Source: patent publication EP2015073A1

Experiments:
[1] = target: human Bcl10 (hBcl10), endogenous in the cells used (human) (UniProt O95999); assay: cell-based or functional assay
[2] = target: FLAG-tagged, point mutated Bcl10 (R228/G) (human) (UniProt O95999); assay: cell-based or functional assay

| Substance | relative NF-κB activity (dual luciferase assay), percent of the maximum level achieved with wt Malt1 [1] [%] | relative NF-κB activity (dual luciferase assay), percent of the maximum levels (wt Bcl10) [2] [%] |
| --- | --- | --- |
| Malt1 with deletion of the caspase-like domain (Δcasp) or mutation of the active site residues Cys 464 or His 415 | 50 to 65 | – |
| human Malt1 (hMalt1), endogenous in the cells used (from UniProt Q9UDY8 1-824) (enzyme) | – | 75 |
